Data on seven substances can be found in PMC12307460.

Assay [1] deals with MERS-CoV spike (S) protein of strain HCoV-EMC/2012 (clade A) (MERS-CoV strain HCoV-EMC/2012 (clade A)) (UniProt K9N5Q8).
For assay [2], the target named is MERS-CoV spike (S) protein of strain MERS-CoV/KOR/KNIH/002_05_2015 (clade B) (MERS-CoV strain MERS-CoV/KOR/KNIH/002_05_2015 (clade B)).
Assay [3] has as its target spike (S) protein of pangolin merbecovirus MjHKU4r-CoV (MjHKU4r-CoV (pangolin HKU4r-CoV)).
Assay [4] addresses MERS-CoV spike (S) protein of strain NRCE-HKU270 (clade C) (MERS-CoV strain NRCE-HKU270 (clade C)).
The target of assay [5] is spike (S) protein of bat merbecovirus BtCoV/Ii/GD/2014-422 (BtCoV/Ii/GD/2014-422 (bat MERSr-CoV)).

Values joined by “and” are separate entries in the source; they are usually repeats but may differ in a detail not shown here. Identical values can stand only once. Bounds are passed on as bounds.

UniProt K9N5Q8, sequence (K9N5Q8 18-1353): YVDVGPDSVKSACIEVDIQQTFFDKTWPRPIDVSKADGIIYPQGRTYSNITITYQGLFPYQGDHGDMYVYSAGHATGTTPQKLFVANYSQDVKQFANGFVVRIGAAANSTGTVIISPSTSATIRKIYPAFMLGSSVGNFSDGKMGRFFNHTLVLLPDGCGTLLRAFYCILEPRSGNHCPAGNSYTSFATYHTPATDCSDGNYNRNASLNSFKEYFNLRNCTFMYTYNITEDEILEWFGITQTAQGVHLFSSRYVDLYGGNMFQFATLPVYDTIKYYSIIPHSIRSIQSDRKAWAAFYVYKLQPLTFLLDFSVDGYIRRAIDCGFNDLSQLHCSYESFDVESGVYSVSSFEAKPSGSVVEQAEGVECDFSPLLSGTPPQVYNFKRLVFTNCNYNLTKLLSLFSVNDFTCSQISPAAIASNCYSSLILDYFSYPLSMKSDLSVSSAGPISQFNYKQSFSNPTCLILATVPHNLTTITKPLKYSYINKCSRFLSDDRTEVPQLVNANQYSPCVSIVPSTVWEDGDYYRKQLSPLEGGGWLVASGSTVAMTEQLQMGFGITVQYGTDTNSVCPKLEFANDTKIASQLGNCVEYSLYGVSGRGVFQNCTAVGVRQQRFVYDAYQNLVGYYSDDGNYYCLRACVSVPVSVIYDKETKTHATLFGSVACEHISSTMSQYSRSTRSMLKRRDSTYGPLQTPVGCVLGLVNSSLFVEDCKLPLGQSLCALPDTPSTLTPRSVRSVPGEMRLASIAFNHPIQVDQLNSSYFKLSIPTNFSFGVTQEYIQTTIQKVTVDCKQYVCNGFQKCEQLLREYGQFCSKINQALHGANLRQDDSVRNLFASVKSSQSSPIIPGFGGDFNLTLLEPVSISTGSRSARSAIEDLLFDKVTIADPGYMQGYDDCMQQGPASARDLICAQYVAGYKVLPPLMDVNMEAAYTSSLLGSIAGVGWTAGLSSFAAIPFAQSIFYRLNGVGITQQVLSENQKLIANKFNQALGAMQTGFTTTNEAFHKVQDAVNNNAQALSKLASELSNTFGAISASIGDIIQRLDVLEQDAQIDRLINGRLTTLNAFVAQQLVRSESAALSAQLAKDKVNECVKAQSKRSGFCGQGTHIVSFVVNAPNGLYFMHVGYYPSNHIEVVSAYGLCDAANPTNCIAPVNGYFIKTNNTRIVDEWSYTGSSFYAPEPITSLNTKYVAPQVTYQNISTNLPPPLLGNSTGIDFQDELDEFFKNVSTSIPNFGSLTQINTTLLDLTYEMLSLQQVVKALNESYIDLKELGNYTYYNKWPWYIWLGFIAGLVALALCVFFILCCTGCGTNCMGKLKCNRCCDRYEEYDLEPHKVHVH

On to JC57-14 (antibody), for which the IC50 of neutralisation of S pseudovirus, average in assay [1] is 0.037 µg/mL; in assay [2], 0.064 µg/mL; in assay [3], greater than 5 µg/mL; in assay [4], 0.055 µg/mL; in assay [5] it was greater than 5 µg/mL. Besides, the IC50 of neutralisation of S pseudovirus, one of three assays is 0.039 µg/mL and 0.023 µg/mL and 0.047 µg/mL in assay [1]; 0.09 µg/mL and 0.043 µg/mL and 0.06 µg/mL in assay [2]; greater than 5 µg/mL in assay [3]; 0.066 µg/mL and 0.059 µg/mL and 0.039 µg/mL in assay [4]; greater than 5 µg/mL in assay [5].

As to 7D10 (antibody), the IC50 of neutralisation of S pseudovirus, average in assay [1] is 50 µg/mL; in assay [2], 7.5 µg/mL; in assay [3], greater than 50 µg/mL; in assay [4], greater than 50 µg/mL; in assay [5], 23 µg/mL. The IC50 of neutralisation of S pseudovirus, one of three assays in assay [1] was 50 µg/mL; in assay [3], greater than 50 µg/mL; in assay [4], greater than 50 µg/mL.

Regarding MCA1 (antibody), the IC50 of neutralisation of S pseudovirus, average in assay [1] was 0.059 µg/mL; in assay [2] it was 0.096 µg/mL; in assay [3], greater than 5 µg/mL; in assay [4], 0.067 µg/mL; in assay [5] it was greater than 5 µg/mL. Also, the IC50 of neutralisation of S pseudovirus, one of three assays in assay [2] was 0.082 µg/mL and 0.06 µg/mL and 0.15 µg/mL; in assay [3] it was greater than 5 µg/mL; in assay [4], 0.084 µg/mL and 0.047 µg/mL and 0.071 µg/mL; in assay [5], greater than 5 µg/mL.

Take G4 (antibody): the IC50 of neutralisation of S pseudovirus, average is 8.1 µg/mL in assay [1]; 7.7 µg/mL in assay [2]; greater than 25 µg/mL in assay [3]; 9.3 µg/mL in assay [4]; 11 µg/mL in assay [5]. Also, the IC50 of neutralisation of S pseudovirus, one of three assays was 5.9 µg/mL and 6.4 µg/mL and 12 µg/mL in assay [1]; greater than 25 µg/mL in assay [3]; 5.2 µg/mL and 8.7 µg/mL and 14 µg/mL in assay [4].

As for m336 (antibody), the IC50 of neutralisation of S pseudovirus, average was 0.14 µg/mL in assay [1]; 0.85 µg/mL in assay [2]; greater than 5 µg/mL in assay [3]; 0.36 µg/mL in assay [4]; greater than 5 µg/mL in assay [5]. Besides, the IC50 of neutralisation of S pseudovirus, one of three assays in assay [3] and in assay [5] was greater than 5 µg/mL each time.

Take D12 (antibody): the IC50 of neutralisation of S pseudovirus, average is 0.068 µg/mL in assay [1]; 0.19 µg/mL in assay [2]; greater than 5 µg/mL in assay [3]; 0.085 µg/mL in assay [4]; greater than 5 µg/mL in assay [5]. In addition, the IC50 of neutralisation of S pseudovirus, one of three assays in assay [1] was 0.087 µg/mL and 0.077 µg/mL and 0.041 µg/mL; in assay [2], 0.25 µg/mL and 0.18 µg/mL and 0.14 µg/mL; in assay [3], greater than 5 µg/mL; in assay [4] it was 0.095 µg/mL and 0.098 µg/mL and 0.061 µg/mL; in assay [5], greater than 5 µg/mL.

As to CDC2-C2 (antibody), the IC50 of neutralisation of S pseudovirus, average in assay [1] is 0.041 µg/mL; in assay [2] it was 0.17 µg/mL; in assay [3] it was greater than 5 µg/mL; in assay [4], 0.12 µg/mL; in assay [5] it was greater than 5 µg/mL. For the same substance, the IC50 of neutralisation of S pseudovirus, one of three assays in assay [3] and in assay [5] was greater than 5 µg/mL in each case.
